Test results published in patent US20250101080A1 (BIOSCEPTRE AUST, published 2025).

T1: dysfunctional (non-functional) P2X7 receptor expressed on human cancer cells (human, UniProt Q99572 1-595)
T1 sequence: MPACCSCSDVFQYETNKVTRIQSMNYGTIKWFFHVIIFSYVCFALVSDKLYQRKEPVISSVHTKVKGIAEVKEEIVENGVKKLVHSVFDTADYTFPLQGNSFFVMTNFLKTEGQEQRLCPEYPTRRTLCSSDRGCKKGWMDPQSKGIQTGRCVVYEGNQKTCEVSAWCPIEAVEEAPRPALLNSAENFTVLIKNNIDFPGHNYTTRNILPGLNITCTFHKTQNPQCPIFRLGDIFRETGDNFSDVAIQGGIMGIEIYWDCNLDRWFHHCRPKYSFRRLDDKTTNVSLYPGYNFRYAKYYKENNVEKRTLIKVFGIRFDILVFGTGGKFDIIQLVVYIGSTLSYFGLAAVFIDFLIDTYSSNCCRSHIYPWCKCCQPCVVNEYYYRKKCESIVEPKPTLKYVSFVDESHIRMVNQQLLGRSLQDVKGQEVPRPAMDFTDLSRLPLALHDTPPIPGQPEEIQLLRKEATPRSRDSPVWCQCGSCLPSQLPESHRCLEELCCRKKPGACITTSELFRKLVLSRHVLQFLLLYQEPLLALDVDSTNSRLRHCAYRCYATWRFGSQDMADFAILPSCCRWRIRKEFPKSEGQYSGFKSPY

T2: EXD2_K193A (nf-P2X7) surface fusion protein on HEK293 cells (human, UniProt Q99572 47-332)
T2 sequence: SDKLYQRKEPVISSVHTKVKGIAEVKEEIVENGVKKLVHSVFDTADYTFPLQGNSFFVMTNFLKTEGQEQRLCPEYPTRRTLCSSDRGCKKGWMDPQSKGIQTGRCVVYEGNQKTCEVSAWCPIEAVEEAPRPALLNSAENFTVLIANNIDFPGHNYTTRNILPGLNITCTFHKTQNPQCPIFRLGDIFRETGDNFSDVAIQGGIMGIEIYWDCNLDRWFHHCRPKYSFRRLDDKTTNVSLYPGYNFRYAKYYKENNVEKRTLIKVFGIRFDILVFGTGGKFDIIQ


Tests used:
[1] = target: T1, dysfunctional (non-functional) P2X7 …; assay: cell-based or functional assay
[2] = target: T2, EXD2_K193A (nf-P2X7) surface fusion …; assay: cell-based or functional assay

| Binder | fold change in cell killing against empty vector transduced CD8 T cells (CytoTox 96 assay, 4 hours, 1:1 ratio, MDA-MB-231 cells) [1] [fold] | fold change in cell killing against empty vector transduced CD8 T cells (CytoTox 96 assay, 4 hours, 1:1 ratio) [2] [fold] |
| --- | --- | --- |
| PEP2-2-1-1 CAR (other) EVQLLESGGGLVQPGGSLRLSCAASGFTFRNHDMGWVRQAPGKGLEWVSAISGSGGSTYYADSVKGRFTISRDNSKNTLYLQMNSLRAEDTAVYYCAEPKPMDTEFDYRSPGTLVTVSSGGGESKYGPPCPSCPAPPVAGPSVFLFPPKPKDTLMISRTPEVTCVVVDVSQEDPEVQFNWYVDGVEVHNAKTKPREEQFNSTYRVVSVLTVLHQDWLNGKEYKCKVSNKGLPSSIEKTISKAKGQPREPQVYTLPPSQEEMTKNQVSLTCLVKGFYPSDIAVEWESNGQPENNYKTTPPVLDSDGSFFLYSRLTVDKSRWQEGNVFSCSVMHEALHNHYTQKSLSLSLGKPFWVLVVVGGVLACYSLLVTVAFIIFWVRSKRSRLLHSDYMNMTPRRPGPTRKHYQPYAPPRDFAAYRSRDQRLPPDAHKPPGGGSFRTPIQEEQADAHSTLAKIRVKFSRSADAPAYQQGQNQLYNELNLGRREEYDVLDKRRGRDPEMGGKPRRKNPQEGLYNELQKDKMAEAYSEIGMKGERRRGKGHDGLYQGLSTATKDTYDALHMQALPPR | ~2.5 | ~15 |
| PEP2-472-2 CAR (other) EVQLLESGGGLVQPGGSLRLSCAASGYTFPMKDMGWVRQAPGKGLEWVSAISGSGGGTYYADSVKGRFTISRDNSKNTLYLQMNSLRAEDTAVYYCAEPKPMDTEFDYRSPGTLVTVLEGGGESKYGPPCPSCPAPPVAGPSVFLFPPKPKDTLMISRTPEVTCVVVDVSQEDPEVQFNWYVDGVEVHNAKTKPREEQFNSTYRVVSVLTVLHQDWLNGKEYKCKVSNKGLPSSIEKTISKAKGQPREPQVYTLPPSQEEMTKNQVSLTCLVKGFYPSDIAVEWESNGQPENNYKTTPPVLDSDGSFFLYSRLTVDKSRWQEGNVFSCSVMHEALHNHYTQKSLSLSLGKPFWVLVVVGGVLACYSLLVTVAFIIFWVRSKRSRLLHSDYMNMTPRRPGPTRKHYQPYAPPRDFAAYRSRDQRLPPDAHKPPGGGSFRTPIQEEQADAHSTLAKIRVKFSRSADAPAYQQGQNQLYNELNLGRREEYDVLDKRRGRDPEMGGKPRRKNPQEGLYNELQKDKMAEAYSEIGMKGERRRGKGHDGLYQGLSTATKDTYDALHMQALPPR | ~2.25 | ~11 |
